The values below come from patent publication US9090882B2, “Compositions and methods for enhanced amino acid levels in plants conferred by lysine and/or threonine feedback insensitive aspartate kinase proteins” (priority 2008, dated 2015).

Residue numbers refer to the chain shown, from its start. Names and notes keep the numbering of the source. Read-outs that look alike come from different tables or passages of the source.

Series [1] has as its system E. coli lysC aspartate kinase. The note with it: known from the literature; cited from earlier work.
In series [2] the test system is X. bovienii aspartate kinase. Briefly: Aspartate kinase enzyme assays and kinetic studies (colorimetric hydroxamate / coupled assay) with purified recombinant His-tagged AK. It is filed as biochemical, Xenorhabdus bovienii. The note with it: for Vmax Asp / Km: purified enzyme. Here is the method: The chimeric plasmids containing AK or the desired mutants were transformed into E. coli BL21 (DE3) cells and transformants were selected on LB (Luria-Bertani) medium containing kanamycin (50 μg/mL). For induction of gene expression, transformants selected from single colonies were grown in 100 mL liquid LB supplemented with ampicillin or kanamycin to approximately 0.6 A600, and 0.4 mM. Isopropyl-β-thiogalactopyranoside (IPTG) (Gold Biotechnologies, St. Louis, Mo.) was added, followed by 15 hours incubation at 21° C. and 220 rpm shaking. Cells were harvested by 30 min centrifugation at 7,000×g and washed once with 20 mM Tris-HCl, 150 mM NaCl, pH 7.4. Washed cell pellets were re-suspended in 50 mM K-phosphate buffer (pH7.4, Buffer A) containing 2 mM MgCl2, 50 mM NaCl, 100 units of benzonase (Novagen, San Diego, Calif.) and protease inhibitor cocktail tablets without EDTA (1 tablet/10 mL) (Boehringer Mannheim, Germany). Cells were broken by three passages through a chilled French press cell (SLM-Aminco Spectronic Instruments), operating at 20,000 psi. The lysate was centrifuged by an ultra-centrifuge for 1 hour at 100,000×g, at 4° C. The resulting supernatant was applied to nickel+-nitrilotriacetic acid (Ni+NTA) agarose column (His-Bind resin, Qiagen) and chromatographed according to the supplier's instructions. The column was washed with 3 bed volumes of Buffer A containing 20 mM imidiazole followed by elution with 300 mM imidazole. Enzymatically active fractions of the N-terminal His-tagged […] were pooled, dialyzed against Buffer A without benzonase, and stored in 15% glycerol solution at −80° C. for use in kinetic studies. The enzyme preparation was over 95% pure as judged by Coomassie Blue-stained SDS-PAGE.
Colorimetric Hydroxamate Method. The assay mixture (final volume, 0.8 mL) contained 100 Tris-HCl, pH8.0, 40 mM hydroxylamine-KOH, pH8.0, 25 mM ATP-KOH, pH8.0, 20 mM MgCl2, L-aspartic acid, and 150 mM KCl. The reaction was initiated by addition of AK enzyme, and carried out at 37° C. for 15-30 min. The reaction was terminated by addition of 400 μL acidified ferric chloride (0.37 M FeCl3, 20% TCA, and 0.72 M HCl) and followed by the centrifugation at top speed of microcentrifuge. The formed aspartyl-hydroxamate was determined by colorimetrically at 505 nm. The biosynthetic activity was calculated based on the standard curves of L-aspartyl-hydroxamate or ε505nm.
The assay couples the conversion of ATP to ADP to the oxidation of NADH using pyruvate kinase and lactate dehydrogenase at 30° C. NADH oxidation was monitored kinetically at 340 nm. (See Wampler D E, Westhead E W. (1968), BIOCHEMISTRY 7: 1661-1670.)
Kinetic parameters were determined by measuring product formation in 100 μL reaction mixtures containing various substrate concentrations ranging from 0 to 25 mM. Controls were included for every assay. Values for Km, Vmax, and Kcat were calculated from the rate of the product formation using Michaelis-Menten equations in conjunction with the curve fitting options in the Grafit 5.0 software (Erithacus software Ltd., Horley, UK) (Table 2).

A further series deals with plants. Particulars: expression in plants; Karchi et al. 1993, Galili et al. EP 0485970; cited from earlier work.
Where [3] appears, read: substrate ATP, read-out: Km ATP.
Setting [4] is: substrate Asp, read-out: Km Asp.

B1: E. coli lysC gene product: recombinant E. coli lysC aspartate kinase, control sensitive to feedback inhibition by Lys (protein, UniProt P08660 2-449, looked up)
Lysine-sensitive …: SEIVVSKFGGTSVADFDAMNRSADIVLSDANVRLVVLSASAGITNLLVALAEGLEPGERFEKLDAIRNIQFAILERLRYPNVIREEIERLLENITVLAEAAALATSPALTDELVSHGELMSTLLFVEILRERDVQAQWFDVRKVMRTNDRFGRAEPDIAALAELAALQLLPRLNEGLVITQGFIGSENKGRTTTLGRGGSDYTAALLAEALHASRVDIWTDVPGIYTTDPRVVSAAKRIDEIAFAEAAEMATFGAKVLHPATLLPAVRSDIPVFVGSSKDPRAGGTLVCNKTENPPLFRALALRRNQTLLTLHSLNMLHSRGFLAEVFGILARHNISVDLITTSEVSVALTLDTTGSTSTGDTLLTQSLLMELSALCRVEVEEGLALVALIGNDLSKACGVGKEVFGVLEPFNIRMICYGASSHNLCFLVPGEDAEQVVQKLHSNLFE
For the molecule B1, the “feedback inhibition by Lys” value in series [1] was “sensitive to feedback inhibition by Lys”.

B2: X. bovienii AK T359I: Xenorhabdus bovienii aspartate kinase variant, Thr 359 replaced with Ile (protein, listed as Xenorhabdus bovienii)
chain: MCAVSSTYPQYVVAKFGGTSVADFDAMNHCADIILANADVRVVVLSASAGVTNLLVALATGCDNDKRKKCLKQIRDIQYAIIDRLNDVNVICEEIDRLLENIEMLSEAASLATSEALTDELVSHGEVMSTLLFVELLRQRNVNAEWFDIRRVMRTNDHFGRAEPDSLQLHISAVELLQPRLNNTVVITQGFIGREEKGRTTTLGRGGSDYTAALLGEALNLQRVDIWTDVPGIYTTDPRVAPTAKRIDKIAFDEAAEMATFGAKILHPATLLPAIRCGIPVFVGSSKDPQAGGTLVCDKTENPPLFRALALRRKQTLLTLHSLKMLHARGFLAEVFTLLLRHNISVDLITTSEVSVALILDTTGSTSTNGSLLTNALLTELSTLCRVEVEEDLALVAIIGNELSQAKGLGKEIFGTLESFNIRMISYGASSHNVCLLVPGQDAESVIQKLHQNLFKV
For the molecule B2, the “Vmax Asp” value in series [2] was 0.26 μmoles · min^−1 · mg^−. The Km – broadly, the concentration of substrate that gives half-maximal velocity – in series [2] (setting [3]) came to 1.82 mM; in series [2] (setting [4]), 2.31 mM.

B3: X. bovienii AK Wild Type: purified recombinant His-tagged wild-type Xenorhabdus bovienii aspartate kinase (encoded by SEQ ID NO: 6) (protein, listed as Xenorhabdus bovienii)
chain: B2 chain with I359T
modifications: His tag
As for B3, the IC50 (commonly the concentration at which inhibition is half-maximal) in series [2] (inhibition of the purified enzyme by lysine) was found to be 140 µM. Moreover, the “Vmax Asp” value in series [2] is on record as 0.29 μmoles · min^−1 · mg^−. Besides, the Km in series [2] (setting [3]) worked out at 2.56 mM; in series [2] (setting [4]), 2.73 mM.

B4: X. bovienii AK E257K/T359I: Xenorhabdus bovienii aspartate kinase double variant E257K/T359I (protein, listed as Xenorhabdus bovienii)
chain: B2 chain with E257K
Regarding B4, the “Vmax Asp” value in series [2] was found to be 0.24 μmoles · min^−1 · mg^−. Besides, the Km amounted to 1.62 mM in series [2] (setting [3]) and 3.1 mM in series [2] (setting [4]).

B5: X. bovienii AK E257K: Xenorhabdus bovienii aspartate kinase variant, Glu 257 replaced with Lys (protein, listed as Xenorhabdus bovienii)
chain: B2 chain with E257K, I359T
In the case of B5, the “Vmax Asp” value in series [2] is on record as 0.20 μmoles · min^−1 · mg^−. Besides, the Km in series [2] (setting [3]) is 1.89 mM; in series [2] (setting [4]) it was 3.06 mM.

B6: E. coli T352I lysC gene product: E. coli feedback-insensitive (T352I) lysC aspartate kinase, control (protein, listed as Escherichia coli)
chain: MSEIVVSKFGGTSVADFDAMNRSADIVLSDANVRLVVLSASAGITNLLVALAEGLEPGERFEKLDAIRNIQFAILERLRYPNVIREEIERLLENITVLAEAAALATSPALTDELVSHGELMSTLLFVEILRERDVQAQWFDVRKVMRTNDRFGRAEPDVAALAELAALQLLPRLNDGLVITQGFIGSENKGRTTTLGRGGSDYTAALLAEALHASRVDIWTDVPGIYTTDPRVVSAAKRIDEIAFAEAAEMATFGAKVLHPATLLPAVRSDIPVFVGSSKDPRAGGTLVCNKTENPPLFRALALRRNQTLLTLHSLNMLHSRGFLAEVFGILARHNISVDLITTSEVSVALTLDTTGSTSTGDTLLTQSLLMELSALCRVEVEEGLALVALIGNDLSKACGVGKEVFGVLEPFNIRMICYGASSHNLCFLVPGEDAEQVVQKLHFNLFE
On to B6, for which the “increase in threonine content of the seed” value in the series on plants is 6-7%. Also, the “feedback inhibition by Lys” value in series [1] was “lysine-insensitive”.
